Reference: the Human Domainome abundance scans (Beltran et al. 2025)
± gives the uncertainty stated by the source.

B1: Histidine--tRNA ligase, cytoplasmic, residues 8 to 45; numbered along this chain, P12081 (parent)
chain: EELVKLQGERVRGLKQQKASAELIEEEVAKLLKLKAQL

Variants of: B1
Experiment: abundance fitness (aPCA) (normalised: wild type 0, dead -1); higher = more abundant; growth selection in yeast, the domain comes from the species named
Details: Homo sapiens

Abundance fitness of substitutions, site by site:
R10: D -0.084 ± 0.14; K 0.245 ± 0.12; H -0.131 ± 0.12; N -0.198 ± 0.08; S -0.213 ± 0.074; T 0.013 ± 0.081; V 0.039 ± 0.084; W -0.887 ± 0.12; F -0.288 ± 0.1; E -0.044 ± 0.093; I -0.035 ± 0.13; L -0.026 ± 0.073; G -0.229 ± 0.081; P 0.053 ± 0.081; M -0.06 ± 0.098; Q -0.097 ± 0.095; Y -0.125 ± 0.12; C -0.379 ± 0.087
E22: Y -0.288 ± 0.11; T 0.091 ± 0.08; A 0.069 ± 0.081; Q 0.13 ± 0.1; R -0.023 ± 0.079; G -0.03 ± 0.096; C -0.107 ± 0.096; M -0.046 ± 0.094; F -0.311 ± 0.091; N 0.055 ± 0.12; P -0.007 ± 0.1; I -0.156 ± 0.1; W -0.577 ± 0.16; K 0.075 ± 0.12; H -0.156 ± 0.14; D 0.04 ± 0.1; L -0.149 ± 0.081; V 0.052 ± 0.1
R12: W -0.018 ± 0.18; L -0.034 ± 0.078; V -0.008 ± 0.081; T 0.05 ± 0.087; G 0.096 ± 0.13; N -0.022 ± 0.089; S 0.098 ± 0.084; I -0.077 ± 0.077; E 0.231 ± 0.099; A 0.218 ± 0.083; D 0.122 ± 0.088; H 0.005 ± 0.075; Q 0.101 ± 0.087; F -0.172 ± 0.089; M -0.216 ± 0.14
V11: S -0.238 ± 0.075; P -0.01 ± 0.088; L -0.189 ± 0.071; K -0.255 ± 0.094; M -0.106 ± 0.1; G -0.121 ± 0.09; W -0.374 ± 0.17; E 0.055 ± 0.15; A -0.169 ± 0.08; Y -0.552 ± 0.11; C -1.51 ± 0.16; N -0.334 ± 0.096; T -0.127 ± 0.084; F -0.571 ± 0.089; H -0.209 ± 0.11; Q 0.011 ± 0.091; R -0.03 ± 0.099; I -0.011 ± 0.13
A19: R -0.255 ± 0.079; N -0.406 ± 0.14; L -0.504 ± 0.088; P -0.145 ± 0.1; K -0.264 ± 0.18; M -0.039 ± 0.13; S -0.21 ± 0.082; G -0.27 ± 0.076; C -0.034 ± 0.14; Q -0.173 ± 0.094; I -0.538 ± 0.15; D -0.285 ± 0.089; F -0.384 ± 0.12; W -0.424 ± 0.12; E -0.17 ± 0.12; Y -0.612 ± 0.15; T -0.174 ± 0.083
Q16: C -0.288 ± 0.096; N 0.076 ± 0.1; W -0.483 ± 0.12; T -0.08 ± 0.095; K -0.004 ± 0.085; A 0.144 ± 0.083; I -0.227 ± 0.076; R -0.11 ± 0.082; V -0.039 ± 0.1; E 0.132 ± 0.095; L -0.057 ± 0.072; G -0.242 ± 0.079; P -0.223 ± 0.089; H -0.134 ± 0.095; S -0.004 ± 0.078; M 0.028 ± 0.078; D 0.083 ± 0.12; F -0.397 ± 0.08; Y -0.427 ± 0.11
K15: W -0.412 ± 0.094; D -0.271 ± 0.14; T 0.001 ± 0.081; H -0.127 ± 0.087; V -0.103 ± 0.087; S -0.184 ± 0.082; N -0.135 ± 0.093; C -0.27 ± 0.093; R -0.1 ± 0.073; Q 0.061 ± 0.093; F -0.164 ± 0.088; E 0.187 ± 0.11; I 0.017 ± 0.095; Y -0.41 ± 0.11; M 0.149 ± 0.12; A -0.107 ± 0.069; G -0.274 ± 0.07; L -0.13 ± 0.075
I24: Q 0.163 ± 0.09; M -0.03 ± 0.077; D 0.055 ± 0.14; H 0.169 ± 0.1; T -0.012 ± 0.088; A -0.027 ± 0.078; S -0.171 ± 0.08; K 0 ± 0.09; Y 0.131 ± 0.18; N -0.137 ± 0.1; L 0.03 ± 0.072; V -0.035 ± 0.078; G -0.068 ± 0.085; E -0.151 ± 0.15; W -1.01 ± 0.31; F 0.069 ± 0.091; R -0.184 ± 0.081
L14: C -0.119 ± 0.11; K -0.209 ± 0.12; F -0.4 ± 0.13; Y -0.458 ± 0.14; P -0.248 ± 0.088; G -0.184 ± 0.078; H -0.397 ± 0.09; A 0.064 ± 0.088; E 0.053 ± 0.1; W -0.467 ± 0.1; I -0.263 ± 0.086; M 0.053 ± 0.082; S -0.101 ± 0.077; Q -0.173 ± 0.11; N -0.479 ± 0.14; R -0.332 ± 0.08; D -0.24 ± 0.1; T -0.334 ± 0.1
Q17: P -0.369 ± 0.13; M 0.052 ± 0.11; F -0.396 ± 0.085; G -0.071 ± 0.08; L -0.232 ± 0.073; S 0.055 ± 0.084; H -0.446 ± 0.19; I -0.388 ± 0.091; R -0.196 ± 0.073; D -0.11 ± 0.12; V -0.258 ± 0.094; W -0.5 ± 0.18
E9: L -0.466 ± 0.084; N 0.035 ± 0.13; D -0.001 ± 0.13; V -0.653 ± 0.077; C -0.5 ± 0.084; H -0.699 ± 0.11; M -0.232 ± 0.1; I -0.716 ± 0.097; T -0.246 ± 0.075; Q -0.379 ± 0.079; K -0.324 ± 0.11; P -0.631 ± 0.074; R -0.464 ± 0.086; Y -0.816 ± 0.1; F -0.684 ± 0.097; G -0.357 ± 0.084; S -0.291 ± 0.081; W -0.726 ± 0.19; A -0.186 ± 0.091
G8: K 0.377 ± 0.27; F -0.287 ± 0.12; P -0.25 ± 0.094; R -0.04 ± 0.082; T 0.217 ± 0.1; H -0.409 ± 0.1; S 0.074 ± 0.068; N -0.075 ± 0.09; A 0.101 ± 0.09; E 0.44 ± 0.11; V 0.085 ± 0.098; D 0.054 ± 0.097; W -0.452 ± 0.27; C -1.04 ± 0.1; M 0.106 ± 0.15; Y -0.285 ± 0.094; I 0.086 ± 0.12; L -0.002 ± 0.075; Q 0.194 ± 0.11
A21: W -0.49 ± 0.12; I -0.101 ± 0.12; K 0.055 ± 0.21; D 0.13 ± 0.097; L -0.058 ± 0.096; H -0.004 ± 0.086; V -0.161 ± 0.082; M 0.116 ± 0.12; Y -0.208 ± 0.11; Q 0.039 ± 0.13; N 0.119 ± 0.13; S 0.072 ± 0.096; E 0.085 ± 0.2; T -0.006 ± 0.11; G -0.151 ± 0.078; F -0.075 ± 0.11; C -0.202 ± 0.17; R -0.086 ± 0.071; P 0.184 ± 0.072
Q7: W -1.15 ± 0.12; F -0.73 ± 0.11; K -0.693 ± 0.18; I -0.526 ± 0.083; R -0.649 ± 0.081; D -0.492 ± 0.09; E -1.63 ± 0.36; G -0.619 ± 0.09; N -0.485 ± 0.12; H -0.507 ± 0.086; L -0.515 ± 0.074; Y -0.706 ± 0.091; V -0.379 ± 0.091; S -0.433 ± 0.068; T -0.357 ± 0.073; P -0.595 ± 0.078; M -0.452 ± 0.092
E25: N 0.055 ± 0.13; L -0.484 ± 0.098; T -0.009 ± 0.081; Q 0.071 ± 0.097; C -0.331 ± 0.16; A 0.128 ± 0.091; H 0 ± 0.09; P -0.208 ± 0.095; I -0.621 ± 0.13; W -0.586 ± 0.11; S 0.032 ± 0.073; M -0.184 ± 0.11; D 0.012 ± 0.097; R -0.064 ± 0.069; K -0.001 ± 0.11; G -0.052 ± 0.077
L23: G -0.143 ± 0.083; N -0.04 ± 0.11; Y -0.358 ± 0.091; Q 0.262 ± 0.1; V 0.2 ± 0.082; D -0.072 ± 0.12; H -0.075 ± 0.11; A -0.037 ± 0.073; R -0.001 ± 0.073; P -0.004 ± 0.086; K 0.045 ± 0.091; M 0.243 ± 0.13; T 0.071 ± 0.082; S -0.266 ± 0.085; I 0.188 ± 0.12
E26: C -0.024 ± 0.085; D -0.009 ± 0.096; H 0.284 ± 0.12; F -0.038 ± 0.083; K 0.184 ± 0.092; G -0.146 ± 0.11; L -0.046 ± 0.067; I 0.086 ± 0.13; A 0.263 ± 0.087; M 0.168 ± 0.1
S20: R -0.019 ± 0.079; K -0.118 ± 0.083; H -0.128 ± 0.11; N 0.026 ± 0.081; T -0.132 ± 0.079; G -0.022 ± 0.091; M -0.431 ± 0.094; F -1.09 ± 0.1; D 0.038 ± 0.073; V -0.693 ± 0.11; C -0.09 ± 0.095; Y -0.945 ± 0.17; Q -0.057 ± 0.1; E 0.068 ± 0.12; W -1.1 ± 0.1; L -0.781 ± 0.1
G13: H 0.079 ± 0.094; Y -0.136 ± 0.15; F 0.079 ± 0.11; V 0.198 ± 0.08; Q 0.253 ± 0.1; I 0.188 ± 0.11; S 0.154 ± 0.082; M 0.324 ± 0.099; K 0.168 ± 0.094; N 0.307 ± 0.19; T 0.218 ± 0.083; W 0.055 ± 0.082; C 0.271 ± 0.085; D 0.079 ± 0.11; P -0.237 ± 0.083; L 0.197 ± 0.079; A 0.23 ± 0.083; R 0.005 ± 0.072
K18: F -0.45 ± 0.11; C -0.112 ± 0.1; Q 0.066 ± 0.076; I -0.375 ± 0.14; Y -0.342 ± 0.088; G 0.172 ± 0.078; V -0.236 ± 0.075; P 0.004 ± 0.082; M 0.067 ± 0.31; A 0.047 ± 0.085; T -0.083 ± 0.099; D 0.221 ± 0.1; W -0.619 ± 0.13; H 0.239 ± 0.11; R -0.06 ± 0.074
